B1: 3A2 (antibody, V domains shown)
VH: QVTLKESGPGILQPSQTLSLTCSFSGFSLSTSGMGVSWIRQPSGKGLEWLAHIYWDDDKRYNPSLKSRLTISKDTSSSQVFLKITSVDTVDTATYYCARRGPLITTDGTFDVWGAGTTVTVSS
VL: DIVMTQSRKFMSTSVGDRVSITCKASQDVGTSVAWYQQKPGQSPKLLIYWASTRHTGVPDRFTGSGSGTDFTLTINSVQSEDLADYFCQQYSSYPYTFGGGTKLEMK
notes: also called 3A2 clone
B2: 3A7 (antibody, V domains shown)
VH: B1 VH
VL: B1 VL
notes: also called 3A7 clone
B3: 3F5 (antibody, V domains shown)
VH: B1 VH
VL: B1 VL
notes: also called 1-3F5
B4: 3B3 (antibody, V domains shown)
VH: DVQLQESGPGLVKPSQSLSLTCTVTGYSITSDYAWIWIRQFPGNKLEWMAYISYSGTTSYNPSLKSRISITRDTSKNQFFLQLNSVTTEDTATYYCAGRRGAYYGNYEEDYWGRGTSVTVSS
VL: QIVLTQSPAIMSASPGEKVTMTCSSSSIVNYMYWYQQKPGSSPRLLIYDTSTLASGVPVRFSGSGSGTSYSLTISRMEAEDAATYYCQQWSSYPYTFGGGTKLEIK
notes: also called 3B3 clone; 1-3B3
B5: 3H2 (antibody, V domains shown)
VH: QVQLQQSGAELMKPGASVKISCKATGNTFSNYWIEWVKQRPGHGLEWIGEILPGSDSTNYNEKFKGKATFTADTSSKTAYMQLSSLTSEDSAVYYCARNRFYWYFDVWGAGTTVTVSS
VL: DVVMTQTPLSLPVSLGDQASISCRSSQSLVHSNGNTYLHWYLQKPGQSPKLLIYKVSNRFSGVPDRFSGSGSGTDFTLKISRVEAEDLGIYFCSQSTHVPWTFGGGTKLEIK
notes: also called 1-3H2
B6: 3F2 (antibody, V domains shown)
VH: QVQLQQPGAELVKPGASVKMSCKASGYTFTSYSLHWVKQTPGQGLEWIGAVYPGNDDTSYNQNFKGKATLTADKSSNTAYMQLSSLTSEDSAVYYCARDGYFAMDYWGQGTSVTVSS
VL: DIVMSQSPSSLAVSVGEKVTMSCKSSQSLLYSTNQKNYLAWYQQKPGQSPKLLIYWASTRESGVPDRFTGSGSGTDFTLTISSVKAEDLAVYYCHQYYSYPWTFGGGTKLEIK
notes: also called 1-3F2

biological target: T1, SARS-CoV-2 RBD (RBD-luciferase antigen of the split-luciferase reporter) (SARS-CoV-2, UniProt P0DTC2 319-541); experiment: split-luciferase reporter of RBD-hACE2 interaction; antibody against hACE2
T1 construct: domain: RBD

**Q.** B1 was tested. Which “% inhibition of RBD-hACE2 binding” value did it give?
**A.** The value was > 80%.

**Q.** Which “% inhibition of RBD-hACE2 binding” value does the source give for B2 here?
**A.** The value was > 80%.

**Q.** How did the “% inhibition of RBD-hACE2 binding” value turn out when B3 was run?
**A.** Its value is > 80%.

**Q.** With B4 as the binder, how does the “% inhibition of RBD-hACE2 binding” value read?
**A.** Its value is > 80%.

**Q.** For B5, which “% inhibition of RBD-hACE2 binding” value is on record?
**A.** The value was > 80%.

**Q.** With B6 as the binder, how does the “% inhibition of RBD-hACE2 binding” value read?
**A.** The value was > 80%.

— patent publication US20230242623A1 (GEORGIA TECH RESEARCH, published 2023)
